± gives the uncertainty stated by the source.
Experiment: self-splicing fitness, log relative to wild type (ln ratio); higher = more splicing; Tetrahymena group I intron in knt gene, E. coli kanamycin selection, DiMSum; sequences stand for … in CUCUCU…GGAGGGAAAAGUUAUCAGGCAUGCACCUGGUAGCUAGUCUUUAAACCAAUAGAUUGCAUCGGUUUAAAAGGCAAGACCGUCAAAUUGCGGGAAAGGGGUCAACAGCCGUUCAGUACCAAGUCUCAGGGGAAACUUUGAGAUGGCCUUGCAAAGGGUAUGGUAAUAAGCUGACGGACAUGGUCCUAACCACGCAGCCAAGUCCUAAGUCAACAGAUCUUCUGUUGAUAUGGAUGCAGUUCACAGACUAAAUGUCGGUCGGGGAAGAUGUAUUCUUCUCAUAAGAUAUAGUCGGACCUCUCCUUAAUGGGAGCUAGCGGAUGAAGUGAUGCAACACUGGAGCCGCUGGGAACUAAUUUGUAUGCGAAAGUAUAUUGAUUAGUUUUGGAGUACUCGUGGUCG
Method in brief: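 A randomised library covering all eight P1ex-region intron nucleotides was built with the intron in the knt kanamycin-resistance gene on pET-22b(+) and held in E. coli BL21(DE3). Cells were grown overnight at 37°C or 30°C on LB agar, with or without 25 μg/mL kanamycin, plus 100 μg/mL carbenicillin, 50 μM IPTG and 0.2% rhamnose, and pooled colonies were amplicon-sequenced on an Illumina HiSeq 2500. DiMSum fitness is the error-weighted combination of wild-type-normalised replicate fold changes, kanamycin versus none.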

Sequence | self-splicing fitness (ln) (30 °C) | self-splicing fitness (ln) (37 °C)
GUUUAGCAAUAUUACGCAUG | -2.59 ± 0.18 | -0.4 ± 0.18
GUUUAGCAAUAUUACGCCAU | -1.68 ± 0.4 | 
GUUUAGCAAUAUUACGCGAG | -1.48 ± 0.17 | -0.934 ± 0.16
GUUUAGCAAUAUUACGCGCG | -0.802 ± 0.1 | -0.0312 ± 0.18
GUUUAGCAAUAUUACGCGGC | -1.26 ± 0.49 | 
GUUUAGCAAUAUUACGCGGU | -2.3 ± 0.45 | -1.95 ± 0.36
GUUUAGCAAUAUUACGGACA | -1.68 ± 0.25 | -1.44 ± 0.25
GUUUAGCAAUAUUACGGCUU | -1.08 ± 0.13 | -0.894 ± 0.12
GUUUAGCAAUAUUACGGGAU | -2.57 ± 0.14 | -1 ± 0.15
GUUUAGCAAUAUUACGGGGA | -3.57 ± 0.37 | -1.41 ± 0.22
GUUUAGCAAUAUUACGGUGA | -1.84 ± 0.2 | -0.461 ± 0.18
GUUUAGCAAUAUUACGUAGG | -2.77 ± 0.13 | -0.822 ± 0.14
GUUUAGCAAUAUUACGUAUG | -2.29 ± 0.21 | -0.712 ± 0.17
GUUUAGCAAUAUUACGUAUU | -2.91 ± 0.21 | -1.38 ± 0.17
GUUUAGCAAUAUUACGUCGG | -2.06 ± 0.18 | -2.12 ± 0.21
GUUUAGCAAUAUUACGUUGU | -4.02 ± 0.21 | -2.17 ± 0.16
GUUUAGCAAUAUUACGUUUA | -2.69 ± 0.23 | -0.853 ± 0.17
UAAAAGCAAUAUUACGAAAG | -2.21 ± 0.17 | -1.56 ± 0.16
UAAAAGCAAUAUUACGAAGA | -2.44 ± 0.11 | -1.12 ± 0.097
UAAAAGCAAUAUUACGAAGC | -3.23 ± 0.3 | -3.29 ± 0.46
UAAAAGCAAUAUUACGAAUA | -0.61 ± 0.11 | -0.627 ± 0.11
UAAAAGCAAUAUUACGACGU | -0.791 ± 0.13 | -0.527 ± 0.12
UAAAAGCAAUAUUACGAUGC | -3.82 ± 0.29 | -2.3 ± 0.18
UAAAAGCAAUAUUACGAUUG | -1.18 ± 0.087 | -0.639 ± 0.11
UAAAAGCAAUAUUACGCAAU | -3.58 ± 0.17 | -1.6 ± 0.13
UAAAAGCAAUAUUACGCACU | -0.274 ± 0.056 | 0.0996 ± 0.068

Sequence | self-splicing fitness (ln) (30 °C) | self-splicing fitness (ln) (37 °C)
UAAAAGCAAUAUUACGCCGC |  | -1.17 ± 0.23
UAAAAGCAAUAUUACGCCUU | -1.53 ± 0.12 | -0.42 ± 0.12
UAAAAGCAAUAUUACGCGUA | -1.12 ± 0.11 | -0.0821 ± 0.096
UAAAAGCAAUAUUACGCGUC | -3.53 ± 0.24 | -2.7 ± 0.21
UAAAAGCAAUAUUACGGAUA | -1.35 ± 0.12 | 0.0185 ± 0.12
UAAAAGCAAUAUUACGGCUC | -1.05 ± 0.12 | 0.168 ± 0.17
UAAAAGCAAUAUUACGGGCA | -0.521 ± 0.094 | 0.0848 ± 0.1
UAAAAGCAAUAUUACGGGCC | -1.68 ± 0.2 | -2.04 ± 0.38
UAAAAGCAAUAUUACGGGGC | -3.59 ± 0.23 | -2.33 ± 0.25
UAAAAGCAAUAUUACGGGGU | -3.96 ± 0.17 | -3.21 ± 0.2
UAAAAGCAAUAUUACGGUCC | -2.84 ± 0.17 | -2.03 ± 0.21
UAAAAGCAAUAUUACGUAAC | -3.84 ± 0.33 | -2.02 ± 0.3
UAAAAGCAAUAUUACGUAGU | -3.36 ± 0.12 | -2.83 ± 0.14
UAAAAGCAAUAUUACGUAUA | -1.82 ± 0.12 | -0.643 ± 0.12
UAAAAGCAAUAUUACGUGUC | -3.12 ± 0.25 | -2.5 ± 0.2
UAAAAGCAAUAUUACGUUAU | -3.59 ± 0.16 | -2.41 ± 0.13
UAACAGCAAUAUUACGAACA | -0.546 ± 0.072 | 0.297 ± 0.087
UAACAGCAAUAUUACGAAGG | -1.76 ± 0.083 | -1.78 ± 0.12
UAACAGCAAUAUUACGACAA | -0.503 ± 0.094 | 0.136 ± 0.096
UAACAGCAAUAUUACGACCG | -0.596 ± 0.09 | -0.323 ± 0.11
UAACAGCAAUAUUACGAGCG | -0.617 ± 0.055 | 0.286 ± 0.069
UAACAGCAAUAUUACGAUUA | -0.131 ± 0.047 | -0.103 ± 0.058
UAACAGCAAUAUUACGCAAG | -2.08 ± 0.078 | -2.23 ± 0.074
UAACAGCAAUAUUACGCAGC | -4.12 ± 0.37 | -3.15 ± 0.4
UAACAGCAAUAUUACGCCUC | -2.18 ± 0.35 | -2.06 ± 0.33
UAACAGCAAUAUUACGCGUU | -3.66 ± 0.1 | -3.01 ± 0.13

Sequence | self-splicing fitness (ln) (30 °C) | self-splicing fitness (ln) (37 °C)
UAACAGCAAUAUUACGGACA | -0.353 ± 0.085 | -0.527 ± 0.1
UAACAGCAAUAUUACGGACG | -0.143 ± 0.055 | 0.21 ± 0.079
UAACAGCAAUAUUACGGCAA | -0.777 ± 0.089 | 0.203 ± 0.096
UAACAGCAAUAUUACGGCUG | -2.55 ± 0.095 | -0.978 ± 0.12
UAACAGCAAUAUUACGGUAG | -1.7 ± 0.07 | -0.0293 ± 0.076
UAACAGCAAUAUUACGUACU | -1.07 ± 0.063 | -0.454 ± 0.068
UAACAGCAAUAUUACGUCAA | -2.17 ± 0.15 | -0.769 ± 0.1
UAACAGCAAUAUUACGUCUG | -0.467 ± 0.059 | 0.248 ± 0.077
UAACAGCAAUAUUACGUUAG | -2.24 ± 0.087 | -0.961 ± 0.086
UAACAGCAAUAUUACGUUUU | -3.39 ± 0.12 | -1.7 ± 0.099
UAAGAGCAAUAUUACGAACU | -2.49 ± 0.47 | 
UAAGAGCAAUAUUACGACAA | -3.57 ± 0.43 | -1.79 ± 0.29
UAAGAGCAAUAUUACGAGCG | -3.12 ± 0.35 | -1.54 ± 0.26
UAAGAGCAAUAUUACGCAAU | -3.35 ± 0.31 | -2.32 ± 0.27
UAAGAGCAAUAUUACGCACC |  | -1.93 ± 0.41
UAAGAGCAAUAUUACGCAGC | -3.16 ± 0.22 | -3.49 ± 0.33
UAAGAGCAAUAUUACGCAGG | -4.39 ± 0.36 | -2.2 ± 0.2
UAAGAGCAAUAUUACGCAUA | -1.8 ± 0.39 | -1.59 ± 0.3
UAAGAGCAAUAUUACGCCUG | -2.17 ± 0.15 | -0.85 ± 0.2
UAAGAGCAAUAUUACGCGAG | -3.96 ± 0.21 | -1.85 ± 0.17
UAAGAGCAAUAUUACGCGGA | -2.95 ± 0.28 | -2.35 ± 0.33
UAAGAGCAAUAUUACGGCAG | -3.03 ± 0.18 | -1.38 ± 0.17
UAAGAGCAAUAUUACGGCCG | -1.79 ± 0.14 | -0.743 ± 0.2
UAAGAGCAAUAUUACGGCGU | -1.79 ± 0.13 | -2.39 ± 0.31
UAAGAGCAAUAUUACGGGAC | -2.98 ± 0.38 | -1.86 ± 0.33
UAAGAGCAAUAUUACGGUAG |  | -2.57 ± 0.35
